Data set [1] can be described thus: Brightness and relative specificity of 9B8 and 9B8 opt+K33N variants in E. coli lysates. The note with it: for Fold over coelenterazine / Fold over 9B8: bacterial lysates; for Fold over coelenterazine: PBI-3939 luminescence divided by native coelenterazine luminescence; for Fold over 9B8: luminescence normalized to 9B8 opt. The data set is classed as biochemical. Here is the method: Additional variants with improved relative specificity to novel PBI-3939 were generated as described previously by saturating amino acid positions 18, 68, 72, 75, and 90 in variant 9B8. […] Relative specificity was determined from the ratio of the luminescence of the variant with PBI-3939 to the luminescence of the variant with native coelenterazine, normalized to the ratio of corresponding luminescence of 9B8. Table 8 lists 9B8 variants (“Variant”) with at least 1.1× fold-increase in relative specificity for PBI-3939. […] 9B8 variants with amino acid substitutions K, D, F, G, Y, W, and H at position 18 had the highest fold improvement in relative specificity.
A new OgLuc library was created using 9B8opt+K33N as a starting template. The random library was created using DIVERSIFY® PCR Random Mutagenesis Kit (ClonTech; Catalog #630703). Condition 5 (as listed in the user manual) was used to generate additional variants, and the average mutation rate was calculated to be 2.6 mutations per gene by compiling sequence data from 83 randomly selected clones. This PCR library was cloned into the pF4Ag-based, non-fusion vector background described previously and the sandwich background, i.e., Id-OgLuc-HT7 (described in Example 45). Variants in the pF4Ag-base non-fusion vector background are designated with (NF). Variants in the sandwich vector background are designated with (F). In order to clone the PCR product into both vectors, an amino acid, i.e., a glycine, was appended to the variant sequence in pF4Ag, generating a new position 170 in the OgLuc variant (“170G”). The 170G is present in the sandwich construct, but in this case is considered part of the linker between OgLuc and HT7. For each library, 4,400 E. coli clones were assayed as described previously with the following exceptions. […] The assay buffer contained 100 mM MES pH 6.0 instead of HEPES, and 35 mM thiourea. The assay volumes were as follows: 10 μL cells, 40 μL lysis buffer, and 50 μL assay buffer.
(§1) Based on the above data, further combination variants were designed and generated (see Table 10) in the context of the pF4Ag-based non-fusion vector background without the 170G. The variants were analyzed in E. coli, HEK293 and NIH3T3 cells as described above and compared to 9B8 opt+K33N. The variants were also examined for luminescence with native coelenterazine.
E. coli lysates containing the variants were prepared and analyzed as described previously. Luminescence generated from the lysates was measured using the novel PBI-3939 and native coelenterazine as substrates. The luminescence of the variants was normalized to the luminescence generated by 9B8 opt (Table 12). The relative specificity of the variants for PBI-3939 and native coelenterazine was calculated by dividing the luminescence of the variants using PBI-3939 as a substrate with the luminescence of the variants using native coelenterazine as a substrate (Table 12).

Data set [2] in a line: Km of L27V reversion variants for PBI-3939. Type of data set: biochemical. Here is the method:
Relative activities <1 indicate the reversion is detrimental compared to the residue at that site in the L27V variant. Relative activities >1 indicate the reversion is favorable for activity compared to the residue at that site in the L27V variant. Some additional data on these mutants indicated the following: 166K, 54F, 54A and L27V were tested for thermal stability. The T1/2 60° C. for 166K, 54F, and 54A were 87, 74, and 33%, respectively, indicating these substitutions cause a reduction in thermal stability. […] This indicates higher substrate affinity for L27V, particularly for the position 54 substitutions.

Data set [3] in a line: Luminescence of OgLuc variants expressed in NIH3T3 cells. Type of data set: cell-based. Particulars: for Increase in Luminescence: NIH3T3: normalized to 9B8 opt. Here is the method:
The PCR library in the pF4Ag-based non-fusion background was screened for additional variants with increased luminescence compared to 9B8 opt+K33N+170G (SEQ ID NOs: 68 and 69). Selected variants were then assayed in HEK293 and NIH3T3 cells. For each cell type, 15,000 cells were plated and grown overnight at 37° C. The next day, the cells were transfected as described in Example 25 with 10 ng pGL4.13 (Promega Corp.) as a transfection control and 100 ng of the OgLuc test DNA. The media was removed, and the cells were lysed with 100 μL of lysis buffer as described in Example 25 except the lysis buffer contained 100 mM MES pH 6.0 instead of HEPES, and luminescence measured using a GLOMAX® Luminometer.
as §1
The brightness of the variants expressed in HEK293 and NIH3T3 cells was measured as described previously. The luminescence of the variants was normalized to the luminescence generated by 9B8 opt (Table 27).
The variants 9B8 opt+K33N+T39T+K43R+Y68D (“V2”; SEQ ID NOs: 92 and 93), 9B8 opt+K33N+L27V+K43R+Y68D (SEQ ID NOs: 339 and 340), 9B8 opt+K33N+L27V+T39T+K43R+S66N (SEQ ID NOs: 341 and 342), and 9B8 opt+K33N+L27V+T39T+K43R+Y68D (“L27V”; SEQ ID NOs: 88 and 89) were subcloned into the Id-OgLuc-HT7 sandwich background as described above and assayed in HEK293 and NIH3T3 cells as described above. The luminescence generated by the sandwiched variants were compared to the luminescence generated by the […] sandwich (SEQ ID NOs: 59 and 60) (Table 38). The L27V sandwich (SEQ ID NOs: 90 and 91) and V2 sandwich (SEQ ID NOs: 94 and 95) had at least 1.3× fold-increase in luminescence in HEK293 and NIH3T3 cells.
The sandwich and non-sandwich versions of the variants V2, 9B8 opt+K33N+L27V+K43R+Y68D, 9B8 opt+K33N+L27V+T39T+K43R+S66N, and L27V were assayed in HEK293 and NIH3T3 cells as described in Example 37. The luminescence generated by the non-sandwiched variants was compared to the luminescence generated by the sandwiched variants (Table 39).

Data set [4] is described as follows: Enzyme kinetics of OgLuc variants (Km, Vmax). Type of data set: biochemical, E. coli. Particulars: PBI-3939, average of three replicates. Here is the method:
Using methods known in the art, enzyme kinetic assays measuring luminescence were performed with the lysates of E. coli containing N and the IV variants 15C1, 9B8, 9F6, and 9A3. […] Two fold serial dilutions of PBI-3939 in the assay buffer described previously in Example 26 were assayed with the diluted lysates. […] Variants 9B8 and 9F6 had higher Km values compared to IV while Km values for the other variants were unchanged.
Luminescence was measured on a TECAN® INFINITE® F500 luminometer.
The enzyme kinetics values were determined for the OgLuc variants as described previously, except luminescence was measured using a GLOMAX® luminometer. Three replicates were used for each variant.

In data set [5] the test system is HEK293 cells. In words: Brightness on a per mole basis in HEK293 cells (HT7 fusions). The data set is classed as cell-based, human.
[6] abbreviates: relative specificity for PBI-3939.

Results on two molecules are retold here after patent publication US8809529B2, “Imidazo[1,2-α]pyrazine derivatives” (Promega Corporation, priority 2010, dated 2014).

For orientation: Km means the substrate concentration at which the rate is half of its maximum.

B1: L27V: 9B8 opt+K33N variant with L27V, T39T, K43R, Y68D (protein)
chain: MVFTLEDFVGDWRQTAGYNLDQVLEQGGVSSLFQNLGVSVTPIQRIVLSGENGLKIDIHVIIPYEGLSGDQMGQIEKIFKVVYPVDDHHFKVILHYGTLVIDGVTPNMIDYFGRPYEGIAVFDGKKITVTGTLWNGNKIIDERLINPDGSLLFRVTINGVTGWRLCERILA
Consider B1, for which, in data set [1], the Fold over coelenterazine is given as 110 and the “Fold over 9B8” value amounted to 1.8. Besides, the “Fold over 9B8 opt + K33N: E. coli” value in data set [1] (luminescence, PBI-3939) was 0.9. Moreover, the “Fold over Native Coelenterazine: E. coli” value in data set [1] (setting [6]) was found to be 85.2. In addition, the Km in data set [2] is 18 µM. Also, in data set [3], the “Fold-Decrease in Luminescence in the Presence of Sandwich Background: NIH 3T3 cells” value worked out at 18 and the “Increase in Luminescence: NIH3T3” value amounted to 1.6. The “Fold over 9B8 opt + K33N: NIH3T3” value in data set [3] (luminescence, PBI-3939) amounted to 0.7. The “Fold over Native Coelenterazine: NIH3T3” value in data set [3] (setting [6]) is 85. For the same molecule, in data set [4], the Km worked out at 13.9 µM and the Vmax is 190,000,000 RLU/0.5 sec.

B2: 9B8: IV variant with Q18L, F68Y, L72Q, M75K; in Tables 12, 22, 23, 26, 27 “9B8” stands for 9B8 opt (protein)
chain: MVFTLEDFVGDWRQTAGYNLDQVLEQGGLSSLFQKLGVSVTPIQKIVLSGENGLKIDIHVIIPYEGLSGYQMGQIEKIFKVVYPVDDHHFKVILHYGTLVIDGVTPNMIDYFGRPYEGIAVFDGKKITVTGTLWNGNKIIDERLINPDGSLLFRVTINGVTGWRLCERILA
On to B2, for which, in data set [1], the Fold over coelenterazine was 7 and the “Fold over 9B8” value was 1.0. In data set [5], the “brightness relative to Luc2” value is on record as “approximately 15 fold” and the “brightness relative to hRL” value is given as above 100 fold. In addition, the “Increase in Luminescence: NIH3T3” value in data set [3] is 1.0. Besides, in data set [4], the Km is 7.7 µM and the Vmax is on record as 86,000,000 RLU/0.5 sec.
